Reference: paper PMC11376382

Tests used:
[1] = biological target: 3×HA-FKBP-CUL1 (human | Cyanidioschyzon merolae)
[2] = biological target: 3×HA-FKBP-SKP1 (human | Cyanidioschyzon merolae)

half-life (t1/2) of mVenus-FRB in the mV^RD-CUL1 strain after the addition of 500 nM rapamycin (the bridging compound), immunoblot time course [1]: 30 min
half-life (t1/2) of mVenus-FRB in the mV^RD-SKP1 strain after the addition of 500 nM rapamycin (the bridging compound), immunoblot time course [2]: 46 min
Substance: mVenus-FRB (domain or fragment)
